In experiment [1] the test system is PBMC. In words: Retest of peptides with the patient's own PBMC: IFN-γ secretion. The format is cell-based, human. As to conditions: PBMC of patient LA1, second assay. From the text: Only two peptide sets (set 33 and set 40) induced proliferation responses that were >2 times background (FIG. 2). Enough cells remained for retesting the first set together and the second peptide set individually. In the second assay, only one peptide induced proliferation and IFN-γ secretion that were >2 times background. This peptide (^340LGRFERMLAAQGGVDPG^355) (SEQ ID NO:1), 1 of the 16 identified by only one of the three search programs, originated from the source protein platelet-derived endothelial cell growth factor (ECGF), also called thymidine phosphorylase or gliostatin.

The subject of experiment [2] is PBMC. In words: Testing of subjects' PBMC with commercially available recombinant ECGF. In kind it is cell-based, human. The procedure:
Initially, subjects' PBMC were tested using commercially available recombinant ECGF. […] Consequently, three HLA-DR T-cell epitope prediction algorithms (Wang et al., PLoS Computat. Biol. e1000048 (2008)), were used to identify seven ECGF peptides, including the one peptide identified in the initial patients' sample (ECGF340-365), that were predicted to be presented by the HLA-DR molecules associated with antibiotic-refractory Lyme arthritis. These peptides were synthesized and tested for autoreactivity via IFN-γ ELISPOT assays using patient and control PBMC (FIG. 3). Based upon the values obtained in 14 healthy control subjects (FIG. 3), a positive T cell response was defined as a stimulation index (no. of spots induced by an ECGF peptide /no. of spots in no antigen controls) 3 standard deviation (SD) above the mean of healthy controls, which characteristically gave >40 spot forming units (SFU)/10^6 PBMC and a stimulation index of >8.

For the molecule “LGRFERMLAAQGVDPG (listed as Homo sapiens) [SEQ ID NO:1, ECGF peptide (index case), HLA-DR-presented, identified in LA1 synovial sample]”, the “IFN-γ secretion relative to background” value in the experiment on PBMC [1] is greater than 2 times background.

B1: ECGF: commercially available recombinant human platelet-derived endothelial cell growth factor, also called thymidine phosphorylase or gliostatin (protein, UniProt P19971 11-482, looked up)
Thymidine phosphorylase: APPAPGDFSGEGSQGLPDPSPEPKQLPELIRMKRDGGRLSEADIRGFVAAVVNGSAQGAQIGAMLMAIRLRGMDLEETSVLTQALAQSGQQLEWPEAWRQQLVDKHSTGGVGDKVSLVLAPALAACGCKVPMISGRGLGHTGGTLDKLESIPGFNVIQSPEQMQVLLDQAGCCIVGQSEQLVPADGILYAARDVTATVDSLPLITASILSKKLVEGLSALVVDVKFGGAAVFPNQEQARELAKTLVGVGASLGLRVAAALTAMDKPLGRCVGHALEVEEALLCMDGAGPPDLRDLVTTLGGALLWLSGHAGTQAQGAARVAAALDDGSALGRFERMLAAQGVDPGLARALCSGSPAERRQLLPRAREQEELLAPADGTVELVRALPLALVLHELGAGRSRAGEPLRLGVGAELLVDVGQRLRRGTPWLRVHRDGPALSGPQSRALQEALVLSDRAPFAAPSPFAELVLPPQQ
Turning to B1, in the experiment on PBMC [2] (actively dividing cells), the “effect on thymidine incorporation” value was “inhibited thymidine incorporation into actively dividing cells”. In addition, the “IFN-γ secretion by PBMC” value in the experiment on PBMC [2] (subjects' PBMC) is recorded as “non-specifically induced PBMC to secrete IFN-γ”.
